The values that follow come from article PMC6457497, “The H3K27me3 demethylase REF6 promotes leaf senescence through directly activating major senescence regulatory and functional genes in Arabidopsis”.

The target of series [1] is T1, GST-REF6C (C2H2 ZnF domain) (Arabidopsis thaliana, UniProt Q9STM3 1239-1360).
T1 sequence: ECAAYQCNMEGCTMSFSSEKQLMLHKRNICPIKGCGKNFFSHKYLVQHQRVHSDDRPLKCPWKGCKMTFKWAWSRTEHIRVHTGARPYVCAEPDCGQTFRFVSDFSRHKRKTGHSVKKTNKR
Briefly: EMSA; Light Shift EMSA kit binding buffer (composition, salt, pH not stated), poly(dI-dC), 4 ug protein in 20 ul, room temperature 30 min; 5% polyacrylamide gel with. As to conditions: protein: recombinant; tags: N-terminal GST; label: biotin; blunt. A general note: Mobility shift assays separate free from complexed probe on a gel.

The target in series [2] is T1, GST-REF6C (C2H2 ZnF domain). Briefly: EMSA; competed by excess unlabeled probe; Light Shift EMSA kit binding buffer (composition, salt, pH not stated), poly(dI-dC), 4 ug protein in 20 ul, room temperature 30 min; 5% polyacrylamide gel with. As to conditions: protein: recombinant; tags: N-terminal GST; label: biotin; blunt.

B1: NAP WT probe (dsDNA)
DNA 1: TTTCTCCAAACTCTGTTTTCTCTGTAAA
DNA 2: TTTACAGAGAAAACAGAGTTTGGAGAAA
For B1, the binding result in series [1] is reported as “binds”.

B2: ORE1 WT probe (dsDNA)
DNA 1: TACTCGGATCCTCTGTTTTTACAAGACA
DNA 2: TGTCTTGTAAAAACAGAGGATCCGAGTA
For B2, the binding result in series [1] is listed as “binds”.

B3: NYE1 WT probe (dsDNA)
DNA 1: AAAGGAGTCTCTCTGTATTTAGTGGCGT
DNA 2: ACGCCACTAAATACAGAGAGACTCCTTT
With B3, the binding result in series [2] is “binds”.

B4: EIN2 WT probe (dsDNA)
DNA 1: AGGAACCATTCTCTGGATAAACCCTAGC
DNA 2: GCTAGGGTTTATCCAGAGAATGGTTCCT
As to B4, the binding result in series [1] is recorded as “binds”.

B5: NYE2 WT probe (dsDNA)
DNA 1: CAAAAAGGGTCTCTGTATTTAGTTATTA
DNA 2: TAATAACTAAATACAGAGACCCTTTTTG
As for B5, the binding result in series [1] was “binds”.
